This note sets out measurements from patent US10087225B2, “Formulation of MK2 inhibitor peptides” (MOERAE MATRIX, INC., priority 2015, dated 2018).

What all share (assay): Kinase Profiling Assay
Format in all cases: biochemical

The target of one experiment is cKit(V654A)(h) (Homo sapiens, UniProt P10721, V654A).
The next experiment concerns the target Flt4(h) (Homo sapiens, UniProt P35916).
The target in a further experiment is T1, PRAK(h) (Homo sapiens, UniProt Q8IW41).
T1 sequence (Q8IW41 1-473): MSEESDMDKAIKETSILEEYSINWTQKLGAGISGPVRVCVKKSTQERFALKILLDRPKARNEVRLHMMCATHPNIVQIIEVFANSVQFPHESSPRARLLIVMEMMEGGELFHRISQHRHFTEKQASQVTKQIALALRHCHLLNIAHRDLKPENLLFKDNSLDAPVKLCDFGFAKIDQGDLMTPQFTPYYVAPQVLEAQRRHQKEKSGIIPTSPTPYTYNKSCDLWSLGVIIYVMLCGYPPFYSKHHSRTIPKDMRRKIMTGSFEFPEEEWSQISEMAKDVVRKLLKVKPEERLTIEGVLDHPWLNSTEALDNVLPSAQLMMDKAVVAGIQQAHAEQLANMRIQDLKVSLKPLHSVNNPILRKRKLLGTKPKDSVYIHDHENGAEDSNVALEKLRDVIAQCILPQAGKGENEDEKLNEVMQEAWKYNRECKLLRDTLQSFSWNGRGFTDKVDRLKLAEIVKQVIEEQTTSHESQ

The target in the next experiment is ACK1(h) (Homo sapiens, UniProt Q07912). The following applies: 100 μM.
In another experiment the target is BTK(h) (Homo sapiens, UniProt Q06187). The following applies: 100 μM.
For another experiment, the target named is CaMKIIβ(h) (Homo sapiens, UniProt Q13554). The settings on record: 100 μM.
Another experiment deals with T2, CaMKIV(h) (Homo sapiens, UniProt Q16566).
T2 sequence (Q16566 1-473): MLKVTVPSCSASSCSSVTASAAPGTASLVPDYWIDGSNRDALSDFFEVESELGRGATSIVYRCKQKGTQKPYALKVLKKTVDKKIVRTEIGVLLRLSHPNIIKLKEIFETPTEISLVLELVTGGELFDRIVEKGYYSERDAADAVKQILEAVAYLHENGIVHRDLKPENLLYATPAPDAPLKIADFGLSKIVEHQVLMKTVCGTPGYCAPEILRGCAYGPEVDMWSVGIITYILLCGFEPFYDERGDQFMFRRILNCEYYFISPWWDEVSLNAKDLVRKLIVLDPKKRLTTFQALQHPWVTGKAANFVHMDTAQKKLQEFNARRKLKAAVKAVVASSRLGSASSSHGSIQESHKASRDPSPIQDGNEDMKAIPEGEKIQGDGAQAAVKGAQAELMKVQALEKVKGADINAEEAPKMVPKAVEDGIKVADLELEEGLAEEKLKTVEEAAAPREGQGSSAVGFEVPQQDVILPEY
The settings on record: 100 μM.

In the next experiment the target is CK1δ(h) (Homo sapiens, UniProt P48730). The following applies: 100 μM.
A further experiment deals with FAK(h) (Homo sapiens, UniProt Q05397). The following applies: 100 μM.
Another experiment concerns the target Fer(h) (Homo sapiens, UniProt P16591). The following applies: 100 μM.
The next experiment deals with GSK3β(h) (Homo sapiens, UniProt P49841). The following applies: 100 μM.
A further experiment concerns the target T3, PDK1(h) (Homo sapiens, UniProt O15530).
T3 sequence (O15530 1-556): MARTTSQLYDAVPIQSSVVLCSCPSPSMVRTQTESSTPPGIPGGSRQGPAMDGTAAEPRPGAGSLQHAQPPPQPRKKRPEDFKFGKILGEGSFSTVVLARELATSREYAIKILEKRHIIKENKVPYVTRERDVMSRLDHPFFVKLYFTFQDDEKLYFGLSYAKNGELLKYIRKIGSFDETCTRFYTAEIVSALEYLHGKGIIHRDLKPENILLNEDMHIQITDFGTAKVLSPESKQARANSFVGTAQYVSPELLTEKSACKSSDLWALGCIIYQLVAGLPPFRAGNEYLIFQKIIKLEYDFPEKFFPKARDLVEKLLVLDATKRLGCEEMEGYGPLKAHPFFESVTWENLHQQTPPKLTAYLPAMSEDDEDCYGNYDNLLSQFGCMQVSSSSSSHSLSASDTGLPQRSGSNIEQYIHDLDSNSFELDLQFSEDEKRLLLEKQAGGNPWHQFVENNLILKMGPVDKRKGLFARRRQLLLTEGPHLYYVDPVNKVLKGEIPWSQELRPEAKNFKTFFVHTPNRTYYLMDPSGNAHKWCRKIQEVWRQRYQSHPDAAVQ
The settings on record: 100 μM.

Another experiment addresses Pim-2(h) (Homo sapiens, UniProt Q9P1W9). The following applies: 100 μM.
The next experiment deals with PKCβI(h) (Homo sapiens, UniProt P05771). The settings on record: 100 μM.
Another experiment addresses Src(T341M)(h) (Homo sapiens, UniProt P12931, T341M). The settings on record: 100 μM.

Chain of Fer(h) (P16591 whole entry): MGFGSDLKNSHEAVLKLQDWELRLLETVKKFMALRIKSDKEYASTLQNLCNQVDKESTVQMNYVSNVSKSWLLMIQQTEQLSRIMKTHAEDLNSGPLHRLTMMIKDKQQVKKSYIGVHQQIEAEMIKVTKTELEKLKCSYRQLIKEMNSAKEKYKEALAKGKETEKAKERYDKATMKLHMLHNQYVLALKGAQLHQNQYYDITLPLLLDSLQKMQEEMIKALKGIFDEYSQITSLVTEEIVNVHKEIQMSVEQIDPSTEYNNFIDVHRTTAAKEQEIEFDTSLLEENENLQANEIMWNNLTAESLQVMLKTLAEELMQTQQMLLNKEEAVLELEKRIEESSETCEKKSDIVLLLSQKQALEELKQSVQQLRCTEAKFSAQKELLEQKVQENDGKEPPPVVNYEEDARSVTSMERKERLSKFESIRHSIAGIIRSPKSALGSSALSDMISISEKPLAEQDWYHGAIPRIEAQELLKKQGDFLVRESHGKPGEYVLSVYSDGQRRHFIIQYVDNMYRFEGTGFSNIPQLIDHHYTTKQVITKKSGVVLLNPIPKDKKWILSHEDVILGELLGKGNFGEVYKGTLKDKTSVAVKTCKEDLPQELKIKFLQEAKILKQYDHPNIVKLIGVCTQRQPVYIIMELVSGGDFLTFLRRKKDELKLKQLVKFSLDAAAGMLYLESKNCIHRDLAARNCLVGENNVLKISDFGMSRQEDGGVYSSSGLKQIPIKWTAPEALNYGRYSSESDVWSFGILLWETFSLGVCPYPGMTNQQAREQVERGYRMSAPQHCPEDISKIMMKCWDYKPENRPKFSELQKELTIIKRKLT
Chain of BTK(h) (Q06187 whole entry): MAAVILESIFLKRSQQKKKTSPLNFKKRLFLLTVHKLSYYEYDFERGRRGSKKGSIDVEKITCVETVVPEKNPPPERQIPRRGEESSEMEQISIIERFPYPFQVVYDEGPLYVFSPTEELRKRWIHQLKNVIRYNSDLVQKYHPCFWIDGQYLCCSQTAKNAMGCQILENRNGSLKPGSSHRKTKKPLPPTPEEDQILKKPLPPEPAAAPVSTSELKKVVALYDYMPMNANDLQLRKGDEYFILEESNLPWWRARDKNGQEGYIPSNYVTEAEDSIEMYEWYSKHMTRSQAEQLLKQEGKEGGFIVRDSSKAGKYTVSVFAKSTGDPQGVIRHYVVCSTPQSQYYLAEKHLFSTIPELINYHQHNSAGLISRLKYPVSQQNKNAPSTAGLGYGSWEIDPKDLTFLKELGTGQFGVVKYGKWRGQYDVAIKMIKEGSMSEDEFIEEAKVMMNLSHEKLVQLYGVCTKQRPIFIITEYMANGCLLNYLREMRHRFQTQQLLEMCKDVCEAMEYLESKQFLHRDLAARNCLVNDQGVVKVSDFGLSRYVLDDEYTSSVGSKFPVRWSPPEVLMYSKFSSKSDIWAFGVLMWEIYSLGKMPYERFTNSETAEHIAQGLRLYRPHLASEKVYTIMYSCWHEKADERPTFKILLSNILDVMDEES
Chain of CK1δ(h) (P48730 whole entry): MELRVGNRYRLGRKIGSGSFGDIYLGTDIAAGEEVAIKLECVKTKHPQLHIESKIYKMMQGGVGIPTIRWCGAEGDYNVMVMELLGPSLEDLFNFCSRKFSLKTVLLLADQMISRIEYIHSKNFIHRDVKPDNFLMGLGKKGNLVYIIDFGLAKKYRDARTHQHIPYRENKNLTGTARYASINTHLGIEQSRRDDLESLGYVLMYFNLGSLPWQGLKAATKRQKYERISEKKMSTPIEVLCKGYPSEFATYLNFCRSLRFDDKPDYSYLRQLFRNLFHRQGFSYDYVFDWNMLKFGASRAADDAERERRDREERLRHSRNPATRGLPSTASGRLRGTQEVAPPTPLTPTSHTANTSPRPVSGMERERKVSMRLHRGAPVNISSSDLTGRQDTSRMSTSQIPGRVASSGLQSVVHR
Chain of PKCβI(h) (P05771 whole entry): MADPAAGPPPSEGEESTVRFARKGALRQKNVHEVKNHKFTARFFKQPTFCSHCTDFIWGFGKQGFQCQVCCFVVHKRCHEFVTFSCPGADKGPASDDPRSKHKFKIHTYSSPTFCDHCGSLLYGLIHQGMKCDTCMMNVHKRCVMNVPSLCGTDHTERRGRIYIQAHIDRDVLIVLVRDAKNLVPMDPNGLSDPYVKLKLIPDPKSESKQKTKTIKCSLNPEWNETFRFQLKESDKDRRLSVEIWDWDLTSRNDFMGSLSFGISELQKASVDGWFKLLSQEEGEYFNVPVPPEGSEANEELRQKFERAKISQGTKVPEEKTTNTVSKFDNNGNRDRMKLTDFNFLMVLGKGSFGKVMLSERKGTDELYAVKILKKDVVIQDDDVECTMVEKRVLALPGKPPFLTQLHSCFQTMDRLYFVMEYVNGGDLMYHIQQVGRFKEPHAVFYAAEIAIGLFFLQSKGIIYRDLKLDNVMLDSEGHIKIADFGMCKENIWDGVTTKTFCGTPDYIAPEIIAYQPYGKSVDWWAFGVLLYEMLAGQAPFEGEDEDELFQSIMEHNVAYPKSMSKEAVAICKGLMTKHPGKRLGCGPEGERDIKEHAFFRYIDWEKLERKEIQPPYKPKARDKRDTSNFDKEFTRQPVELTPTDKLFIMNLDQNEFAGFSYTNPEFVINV
Chain of GSK3β(h) (P49841 whole entry): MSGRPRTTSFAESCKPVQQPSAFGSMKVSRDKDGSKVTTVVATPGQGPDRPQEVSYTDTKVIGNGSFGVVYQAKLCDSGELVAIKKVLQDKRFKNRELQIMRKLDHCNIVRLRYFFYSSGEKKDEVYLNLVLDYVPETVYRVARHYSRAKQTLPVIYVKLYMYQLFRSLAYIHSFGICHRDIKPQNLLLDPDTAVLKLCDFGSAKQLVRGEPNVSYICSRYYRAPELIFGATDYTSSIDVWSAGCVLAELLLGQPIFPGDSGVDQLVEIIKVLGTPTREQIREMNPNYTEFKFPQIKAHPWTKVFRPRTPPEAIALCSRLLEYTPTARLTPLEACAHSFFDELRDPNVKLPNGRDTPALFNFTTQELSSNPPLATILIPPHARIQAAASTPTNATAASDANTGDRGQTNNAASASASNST
Chain of CaMKIIβ(h) (Q13554 whole entry): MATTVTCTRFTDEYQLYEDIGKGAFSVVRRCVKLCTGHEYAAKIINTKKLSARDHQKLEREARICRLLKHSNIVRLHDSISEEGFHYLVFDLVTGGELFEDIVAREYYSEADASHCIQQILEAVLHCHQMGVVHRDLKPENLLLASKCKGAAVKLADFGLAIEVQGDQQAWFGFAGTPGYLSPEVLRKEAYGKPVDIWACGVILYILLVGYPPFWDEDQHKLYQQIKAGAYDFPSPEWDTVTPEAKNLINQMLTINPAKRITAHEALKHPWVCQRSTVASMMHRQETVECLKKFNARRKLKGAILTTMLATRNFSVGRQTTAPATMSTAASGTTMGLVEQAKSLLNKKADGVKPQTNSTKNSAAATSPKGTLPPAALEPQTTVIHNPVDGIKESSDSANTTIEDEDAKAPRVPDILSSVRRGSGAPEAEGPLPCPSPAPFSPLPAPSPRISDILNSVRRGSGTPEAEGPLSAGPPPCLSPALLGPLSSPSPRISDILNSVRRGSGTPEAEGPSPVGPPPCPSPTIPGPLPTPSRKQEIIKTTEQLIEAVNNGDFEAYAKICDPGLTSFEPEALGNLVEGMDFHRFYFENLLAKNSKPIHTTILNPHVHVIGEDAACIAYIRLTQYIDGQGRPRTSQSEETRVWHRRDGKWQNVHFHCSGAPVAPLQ
Chain of FAK(h) (Q05397 whole entry): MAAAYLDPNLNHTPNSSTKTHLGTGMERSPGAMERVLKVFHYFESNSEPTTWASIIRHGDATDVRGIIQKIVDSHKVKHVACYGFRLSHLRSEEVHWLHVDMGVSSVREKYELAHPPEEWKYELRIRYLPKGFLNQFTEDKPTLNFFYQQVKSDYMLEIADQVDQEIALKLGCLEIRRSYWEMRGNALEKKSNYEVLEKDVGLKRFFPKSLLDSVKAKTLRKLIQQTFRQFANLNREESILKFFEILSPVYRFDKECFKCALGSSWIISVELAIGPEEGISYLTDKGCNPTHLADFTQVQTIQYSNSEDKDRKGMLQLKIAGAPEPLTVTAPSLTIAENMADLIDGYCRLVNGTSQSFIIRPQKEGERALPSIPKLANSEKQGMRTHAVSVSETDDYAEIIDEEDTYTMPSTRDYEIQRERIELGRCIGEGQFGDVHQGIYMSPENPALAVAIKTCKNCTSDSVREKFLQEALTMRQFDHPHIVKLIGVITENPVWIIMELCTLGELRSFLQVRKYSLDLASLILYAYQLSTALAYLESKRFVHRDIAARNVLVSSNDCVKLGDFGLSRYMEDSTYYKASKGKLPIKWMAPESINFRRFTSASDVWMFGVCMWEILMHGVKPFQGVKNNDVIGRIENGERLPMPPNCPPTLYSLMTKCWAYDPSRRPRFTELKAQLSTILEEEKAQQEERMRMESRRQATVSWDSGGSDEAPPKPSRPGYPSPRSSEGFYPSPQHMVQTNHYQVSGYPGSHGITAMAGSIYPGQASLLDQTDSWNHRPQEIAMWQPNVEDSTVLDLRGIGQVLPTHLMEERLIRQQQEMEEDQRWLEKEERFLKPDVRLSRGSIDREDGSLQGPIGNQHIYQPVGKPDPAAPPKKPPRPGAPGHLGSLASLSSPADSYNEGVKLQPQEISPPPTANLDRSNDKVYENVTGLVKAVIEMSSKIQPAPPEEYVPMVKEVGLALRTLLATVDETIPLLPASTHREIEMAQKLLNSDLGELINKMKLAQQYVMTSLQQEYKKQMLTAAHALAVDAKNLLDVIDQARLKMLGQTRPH
Chain of Pim-2(h) (Q9P1W9 whole entry): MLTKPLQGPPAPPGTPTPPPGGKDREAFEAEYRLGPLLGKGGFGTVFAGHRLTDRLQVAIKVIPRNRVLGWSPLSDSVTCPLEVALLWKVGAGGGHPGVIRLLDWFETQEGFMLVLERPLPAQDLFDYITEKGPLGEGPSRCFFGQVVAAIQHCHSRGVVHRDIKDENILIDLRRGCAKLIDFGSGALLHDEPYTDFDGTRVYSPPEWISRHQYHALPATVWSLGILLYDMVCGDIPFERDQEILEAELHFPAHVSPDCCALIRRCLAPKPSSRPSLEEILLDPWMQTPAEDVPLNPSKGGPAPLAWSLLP

On to H-YARAAARQARAKALARQLGVAA-OH [MMI-0100], for which the activity at 100 µM was found to be 69% on cKit(V654A)(h), 135% on Flt4(h) and 159% at PRAK(h).

For “HRRIKAWLKKIKALARQLGVAA (Mammalian) [MMI-0500]”, the “% activity” value with ACK1(h) is on record as 64%; with BTK(h) it was 18%; in the experiment with CaMKIIβ(h) it was 3%; with CaMKIV(h), -1%; in the experiment with CK1δ(h), 78%; in the experiment with cKit(V654A)(h) (100 μM), 223%. The “% activity” value with FAK(h) is 94%; with Fer(h), 196%; in the experiment with Flt4(h) (100 μM) it was 73%; in the experiment with GSK3β(h), 238%; in the experiment with PDK1(h), 178%; with Pim-2(h), 46%. Besides, the “% activity” value with PKCβI(h) is given as 1%; with PRAK(h) (100 μM), 95%; in the experiment with Src(T341M)(h), 59%.

On to “YARAAARQARAKALNRQLGVA (Mammalian) [MMI-0200]”, for which the “% activity” value with ACK1(h) turned out to be 97%; in the experiment with BTK(h), 100%; with CaMKIIβ(h), 53%; with CaMKIV(h), 71%; with CK1δ(h) it was 92%; with FAK(h), 110%. The “% activity” value with Fer(h) is 101%; with GSK3β(h), 132%; with PDK1(h) it was 143%; with Pim-2(h), 74%; in the experiment with PKCβI(h), 98%; in the experiment with Src(T341M)(h) it was 56%.
